Source: patent US20250295772A1 (ABATA THERAPEUTICS, published 2025)

T1: preproinsulin 73-90 peptide complexed with HLA-DRB1*04:01 (human, UniProt P01903 26-254; P01911 30-266)
T1 MHC II alpha: not shown
T1 MHC II beta: not shown
T1 peptide: GAGSLQPLALEGSLQKRG


Target: T1, preproinsulin 73-90 peptide complexed …
Assay: cell-based or functional assay

| Binder | EC50 (nM) of CD69 upregulation, conventional CD4+ T cells + BLS-DRB1*04:01 cells, peptide titrated |
| --- | --- |
| TCR-B (TCR) TCR alpha: EDKVVQSPLSLVVHEGDTVTLNCSYEVTNFRSLLWYKQEKKAPTFLFMLTSSGIEKKSGRLSSILDKKELFSILNITATQTGDSAVYLCAVNSGAGSYQLTFGKGTKLSVIPNIQNPDPAVYQLRDSKSSDKSVCLFTDFDSQTNVSQSKDSDVYITDKTVLDMRSMDFKSNSAVAWSNKSDFACANAFNNSIIPEDTFFPSPESSCDVKLVEKSFETDTNLNFQNLSVIGFRILLLKVAGFNLLMTLRLWSS TCR beta: DAEITQSPRHKITETGRQVTLACHQTWNHNNMFWYRQDLGHGLRLIHYSYGVQDTNKGEVSDGYSVSRSNTEDLPLTLESAASSQTSVYFCASSSGGLYEQYFGPGTRLTVTEDLKNVFPPEVAVFEPSEAEISHTQKATLVCLATGFYPDHVELSWWVNGKEVHSGVSTDPQPLKEQPALNDSRYCLSSRLRVSATFWQNPRNHFRCQVQFYGLSENDEWTQDRAKPVTQIVSAEAWGRADCGFTSESYQQGVLSATILYEILLGKATLYAVLVSALVLMAMVKRKDSRG | 5.68 nM |
| TCR-B DS (TCR) TCR alpha: EDKVVQSPLSLVVHEGDTVTLNCSYEVTNFRSLLWYKQEKKAPTFLFMLTSSGIEKKSGRLSSILDKKELFSILNITATQTGDSAVYLCAVNSGAGSYQLTFGKGTKLSVIPNIQNPDPAVYQLRDSKSSDKSVCLFTDFDSQTNVSQSKDSDVYITDKCVLDMRSMDFKSNSAVAWSNKSDFACANAFNNSIIPEDTFFPSPESSCDVKLVEKSFETDTNLNFQNLSVIGFRILLLKVAGFNLLMTLRLWSS TCR beta: DAEITQSPRHKITETGRQVTLACHQTWNHNNMFWYRQDLGHGLRLIHYSYGVQDTNKGEVSDGYSVSRSNTEDLPLTLESAASSQTSVYFCASSSGGLYEQYFGPGTRLTVTEDLKNVFPPEVAVFEPSEAEISHTQKATLVCLATGFYPDHVELSWWVNGKEVHSGVCTDPQPLKEQPALNDSRYCLSSRLRVSATFWQNPRNHFRCQVQFYGLSENDEWTQDRAKPVTQIVSAEAWGRADCGFTSESYQQGVLSATILYEILLGKATLYAVLVSALVLMAMVKRKDSRG | 3.78 nM |
| TCR-D (TCR) TCR alpha: NSVTQMEGPVTLSEEAFLTINCTYTATGYPSLFWYVQYPGEGLQLLLKATKADDKGSNKGFEATYRKETTSFHLEKGSVQVSDSAVYFCALSEKTSYDKVIFGPGTSLSVIPNIQNPDPAVYQLRDSKSSDKSVCLFTDFDSQTNVSQSKDSDVYITDKTVLDMRSMDFKSNSAVAWSNKSDFACANAFNNSIIPEDTFFPSPESSCDVKLVEKSFETDTNLNFQNLSVIGFRILLLKVAGFNLLMTLRLWSS TCR beta: NAGVTQTPKFRILKIGQSMTLQCTQDMNHNYMYWYRQDPGMGLKLIYYSVGAGITDKGEVPNGYNVSRSTTEDFPLRLELAAPSQTSVYFCASSYGPGGSEAFFGQGTRLTVVEDLNKVFPPEVAVFEPSEAEISHTQKATLVCLATGFFPDHVELSWWVNGKEVHSGVSTDPQPLKEQPALNDSRYCLSSRLRVSATFWQNPRNHFRCQVQFYGLSENDEWTQDRAKPVTQIVSAEAWGRADCGFTSVSYQQGVLSATILYEILLGKATLYAVLVSALVLMAMVKRKDF | 4.42 nM |
| TCR-E DS (TCR) TCR alpha: NSVTQMEGPVTLSEEAFLTINCTYTATGYPSLFWYVQYPGEGLQLLLKATKADDKGSNKGFEATYRKETTSFHLEKGSVQVSDSAVYFCALSVKTSYDKVIFGPGTSLSVIPNIQNPDPAVYQLRDSKSSDKSVCLFTDFDSQTNVSQSKDSDVYITDKCVLDMRSMDFKSNSAVAWSNKSDFACANAFNNSIIPEDTFFPSPESSCDVKLVEKSFETDTNLNFQNLSVIGFRILLLKVAGFNLLMTLRLWSS TCR beta: NAGVTQTPKFQVLKTGQSMTLQCAQDMNHNSMYWYRQDPGMGLRLIYYSASEGTTDKGEVPNGYNVSRLNKREFSLRLESAAPSQTSVYFCASSRDRGPETQYFGPGTRLLVLEDLKNVFPPEVAVFEPSEAEISHTQKATLVCLATGFYPDHVELSWWVNGKEVHSGVCTDPQPLKEQPALNDSRYCLSSRLRVSATFWQNPRNHFRCQVQFYGLSENDEWTQDRAKPVTQIVSAEAWGRADCGFTSESYQQGVLSATILYEILLGKATLYAVLVSALVLMAMVKRKDSRG | 3.47 nM |
| TCR-D DS (TCR) TCR alpha: NSVTQMEGPVTLSEEAFLTINCTYTATGYPSLFWYVQYPGEGLQLLLKATKADDKGSNKGFEATYRKETTSFHLEKGSVQVSDSAVYFCALSEKTSYDKVIFGPGTSLSVIPNIQNPDPAVYQLRDSKSSDKSVCLFTDFDSQTNVSQSKDSDVYITDKCVLDMRSMDFKSNSAVAWSNKSDFACANAFNNSIIPEDTFFPSPESSCDVKLVEKSFETDTNLNFQNLSVIGFRILLLKVAGFNLLMTLRLWSS TCR beta: NAGVTQTPKFRILKIGQSMTLQCTQDMNHNYMYWYRQDPGMGLKLIYYSVGAGITDKGEVPNGYNVSRSTTEDFPLRLELAAPSQTSVYFCASSYGPGGSEAFFGQGTRLTVVEDLNKVFPPEVAVFEPSEAEISHTQKATLVCLATGFFPDHVELSWWVNGKEVHSGVCTDPQPLKEQPALNDSRYCLSSRLRVSATFWQNPRNHFRCQVQFYGLSENDEWTQDRAKPVTQIVSAEAWGRADCGFTSVSYQQGVLSATILYEILLGKATLYAVLVSALVLMAMVKRKDF | 2.18 nM |
| TCR-E (TCR) TCR alpha: NSVTQMEGPVTLSEEAFLTINCTYTATGYPSLFWYVQYPGEGLQLLLKATKADDKGSNKGFEATYRKETTSFHLEKGSVQVSDSAVYFCALSVKTSYDKVIFGPGTSLSVIPNIQNPDPAVYQLRDSKSSDKSVCLFTDFDSQTNVSQSKDSDVYITDKTVLDMRSMDFKSNSAVAWSNKSDFACANAFNNSIIPEDTFFPSPESSCDVKLVEKSFETDTNLNFQNLSVIGFRILLLKVAGFNLLMTLRLWSS TCR beta: NAGVTQTPKFQVLKTGQSMTLQCAQDMNHNSMYWYRQDPGMGLRLIYYSASEGTTDKGEVPNGYNVSRLNKREFSLRLESAAPSQTSVYFCASSRDRGPETQYFGPGTRLLVLEDLKNVFPPEVAVFEPSEAEISHTQKATLVCLATGFYPDHVELSWWVNGKEVHSGVSTDPQPLKEQPALNDSRYCLSSRLRVSATFWQNPRNHFRCQVQFYGLSENDEWTQDRAKPVTQIVSAEAWGRADCGFTSESYQQGVLSATILYEILLGKATLYAVLVSALVLMAMVKRKDSRG | 7.78 nM |
| TCR-C (TCR) TCR alpha: RGNGKNQVEQSPQSLIILEGKNCTLQCNYTVSPFSNLRWYKQDTGRGPVSLTIMTFSENTKSNGRYTATLDADTKQSSLHITASQLSDSASYICVVGPSGGSNYKLTFGKGTLLTVNPNIQNPDPAVYQLRDSKSSDKSVCLFTDFDSQTNVSQSKDSDVYITDKTVLDMRSMDFKSNSAVAWSNKSDFACANAFNNSIIPEDTFFPSPESSCDVKLVEKSFETDTNLNFQNLSVIGFRILLLKVAGFNLLMTLRLWSS TCR beta: DSGVTQTPKHLITATGQRVTLRCSPRSGDLSVYWYQQSLDQGLQFLIQYYNGEERAKGNILERFSAQQFPDLHSELNLSSLELGDSALYFCASSGQGFLGNTEAFFGQGTRLTVVEDLNKVFPPEVAVFEPSEAEISHTQKATLVCLATGFFPDHVELSWWVNGKEVHSGVSTDPQPLKEQPALNDSRYCLSSRLRVSATFWQNPRNHFRCQVQFYGLSENDEWTQDRAKPVTQIVSAEAWGRADCGFTSVSYQQGVLSATILYEILLGKATLYAVLVSALVLMAMVKRKDF | 156 nM |
| TCR-C DS (TCR) TCR alpha: RGNGKNQVEQSPQSLIILEGKNCTLQCNYTVSPFSNLRWYKQDTGRGPVSLTIMTFSENTKSNGRYTATLDADTKQSSLHITASQLSDSASYICVVGPSGGSNYKLTFGKGTLLTVNPNIQNPDPAVYQLRDSKSSDKSVCLFTDFDSQTNVSQSKDSDVYITDKCVLDMRSMDFKSNSAVAWSNKSDFACANAFNNSIIPEDTFFPSPESSCDVKLVEKSFETDTNLNFQNLSVIGFRILLLKVAGFNLLMTLRLWSS TCR beta: DSGVTQTPKHLITATGQRVTLRCSPRSGDLSVYWYQQSLDQGLQFLIQYYNGEERAKGNILERFSAQQFPDLHSELNLSSLELGDSALYFCASSGQGFLGNTEAFFGQGTRLTVVEDLNKVFPPEVAVFEPSEAEISHTQKATLVCLATGFFPDHVELSWWVNGKEVHSGVCTDPQPLKEQPALNDSRYCLSSRLRVSATFWQNPRNHFRCQVQFYGLSENDEWTQDRAKPVTQIVSAEAWGRADCGFTSVSYQQGVLSATILYEILLGKATLYAVLVSALVLMAMVKRKDF | 24.2 nM |
| TCR-F (TCR) TCR alpha: EDQVTQSPEALRLQEGESSSLNCSYTVSGLRGLFWYRQDPGKGPEFLFTLYSAGEEKEKERLKATLTKKESFLHITAPKPEDSATYLCAVQATGYALNFGKGTSLLVTPHIQNPDPAVYQLRDSKSSDKSVCLFTDFDSQTNVSQSKDSDVYITDKTVLDMRSMDFKSNSAVAWSNKSDFACANAFNNSIIPEDTFFPSPESSCDVKLVEKSFETDTNLNFQNLSVIGFRILLLKVAGFNLLMTLRLWSS TCR beta: GAGVSQSPSNKVTEKGKDVELRCDPISGHTALYWYRQSLGQGLEFLIYFQGNSAPDKSGLPSDRFSAERTGGSVSTLTIQRTQQEDSAVYLCASNLGGSRQPQHFGDGTRLSILEDLNKVFPPEVAVFEPSEAEISHTQKATLVCLATGFFPDHVELSWWVNGKEVHSGVSTDPQPLKEQPALNDSRYCLSSRLRVSATFWQNPRNHFRCQVQFYGLSENDEWTQDRAKPVTQIVSAEAWGRADCGFTSVSYQQGVLSATILYEILLGKATLYAVLVSALVLMAMVKRKDF | 1.5 nM |
| TCR-F DS (TCR) TCR alpha: EDQVTQSPEALRLQEGESSSLNCSYTVSGLRGLFWYRQDPGKGPEFLFTLYSAGEEKEKERLKATLTKKESFLHITAPKPEDSATYLCAVQATGYALNFGKGTSLLVTPHIQNPDPAVYQLRDSKSSDKSVCLFTDFDSQTNVSQSKDSDVYITDKCVLDMRSMDFKSNSAVAWSNKSDFACANAFNNSIIPEDTFFPSPESSCDVKLVEKSFETDTNLNFQNLSVIGFRILLLKVAGFNLLMTLRLWSS TCR beta: GAGVSQSPSNKVTEKGKDVELRCDPISGHTALYWYRQSLGQGLEFLIYFQGNSAPDKSGLPSDRFSAERTGGSVSTLTIQRTQQEDSAVYLCASNLGGSRQPQHFGDGTRLSILEDLNKVFPPEVAVFEPSEAEISHTQKATLVCLATGFFPDHVELSWWVNGKEVHSGVCTDPQPLKEQPALNDSRYCLSSRLRVSATFWQNPRNHFRCQVQFYGLSENDEWTQDRAKPVTQIVSAEAWGRADCGFTSVSYQQGVLSATILYEILLGKATLYAVLVSALVLMAMVKRKDF | 1.36 nM |
